Target: sodium taurocholate cotransporting polypeptide (NTCP) (UniProt Q14973)
Assay: cell-based or functional assay

Chain of UniProt Q14973 (Q14973 whole entry): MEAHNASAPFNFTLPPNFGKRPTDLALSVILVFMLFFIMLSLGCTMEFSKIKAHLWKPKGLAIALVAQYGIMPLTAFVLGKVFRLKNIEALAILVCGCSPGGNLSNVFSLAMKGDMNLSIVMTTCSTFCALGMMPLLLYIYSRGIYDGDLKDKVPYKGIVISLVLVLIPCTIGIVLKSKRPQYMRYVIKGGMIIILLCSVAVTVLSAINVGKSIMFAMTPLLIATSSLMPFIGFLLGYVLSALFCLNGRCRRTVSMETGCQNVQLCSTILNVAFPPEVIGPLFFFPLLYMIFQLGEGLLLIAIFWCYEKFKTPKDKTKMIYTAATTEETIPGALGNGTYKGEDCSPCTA

Myrcludex B (peptide)
DsRed-positive CreC/CIR cells by FACS, day 7 after rHBV-CreN infection (MOI=250) with MyrB: < 1% | DsRed-positive CreC/CIR cells by flow cytometry, day 10 after rHBV-CreN infection (MOI=300) with MyrB: < 1%

Reference: US20200056171A1
